Source: US20220235139A1 (ROCHE DIAGNOSTICS OPERATIONS, published 2022)

Key:
[1] = biological target: T1, SEQ ID NO 15: G-G-V-D-pY-K-N-I-H-L-E-K-K-pY-V; assay: CelluSpots peptide array, 15-mer CSF-1R peptides in duplicate
T1 sequence (peptide, phosphotyrosine (pY) at positions 5 and 14): GGVDYKNIHLEKKYV

[2] = biological target: T2, SEQ ID NO 16: G-V-D-pY-K-N-I-H-L-E-K-K-pY-V-R; assay: as above
T2 sequence (peptide, phosphotyrosine (pY) at positions 4 and 13): GVDYKNIHLEKKYVR

[3] = biological target: T3, SEQ ID NO 17: V-D-pY-K-N-I-H-L-E-K-K-pY-V-R-R; assay: as above
T3 sequence (peptide, phosphotyrosine (pY) at positions 3 and 12): VDYKNIHLEKKYVRR

[4] = biological target: T4, SEQ ID NO 18: D-pY-K-N-I-H-L-E-K-K-pY-V-R-R-D; assay: as above
T4 sequence (peptide, phosphotyrosine (pY) at positions 2 and 11): DYKNIHLEKKYVRRD

[5] = biological target: T5, SEQ ID NO 19: pY-K-N-I-H-L-E-K-K-pY-V-R-R-D-S; assay: as above
T5 sequence (peptide, phosphotyrosine (pY) at positions 1 and 10): YKNIHLEKKYVRRDS

[6] = biological target: T6, SEQ ID NO 20: K-N-I-H-L-E-K-K-pY-V-R-R-D-S-G; assay: as above
T6 sequence (peptide, phosphotyrosine (pY) at position 9): KNIHLEKKYVRRDSG

[7] = biological target: T7, SEQ ID NO 21: N-I-H-L-E-K-K-pY-V-R-R-D-S-G-F; assay: as above
T7 sequence (peptide, phosphotyrosine (pY) at position 8): NIHLEKKYVRRDSGF

[8] = biological target: T8, SEQ ID NO: 13: P-E-G-G-V-D-pY-K-N-I-H-L-E-K-K; assay: as above
T8 sequence (peptide, phosphotyrosine (pY) at position 7): PEGGVDYKNIHLEKK

[9] = biological target: T9, SEQ ID NO: 14: E-G-G-V-D-pY-K-N-I-H-L-E-K-K-pY; assay: as above
T9 sequence (peptide, phosphotyrosine (pY) at positions 6 and 15): EGGVDYKNIHLEKKY

TtSlyD-CSF1R = biological target: T10, TtSlyD-CSF1R; assay: SPR (Biacore), captured antibody, single injection of 300 nM analyte
T10 construct: also called 21 kDa TtSlyD-CSF1R protein
T10 chain: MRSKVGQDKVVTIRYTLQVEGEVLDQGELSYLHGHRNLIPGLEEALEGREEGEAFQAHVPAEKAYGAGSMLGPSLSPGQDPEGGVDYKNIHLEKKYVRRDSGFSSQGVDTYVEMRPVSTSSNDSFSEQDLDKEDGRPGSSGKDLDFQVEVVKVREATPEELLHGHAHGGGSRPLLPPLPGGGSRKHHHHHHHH
Procedure: A Biacore B3000 instrument (GE Healthcare) was used to kinetically assess the rabbit antibodies for kinetics and binding specificity for TtSlyD-CSF1R. A CMS series sensor was mounted into the system and was normalized in HBS-ET buffer (10 mM HEPES pH 7.4, 150 mM NaCl, 3 mM EDTA, 0.005% w/v Tween 20) according to the manufacturer's instructions. The sample buffer was the system buffer supplemented with 1 mg/ml CMD (Carboxymethyldextran, Sigma #86524). The system operated at 25° C. 10000 RU GAR<F(ab)2> (relative units of goat anti rabbit F(ab)2/Jackson Laboratories, cat. No. 100018) were immobilized according to the manufacturer's instructions using EDC/NHS chemistry on all flow cells. The sensor was saturated with 1M ethanolamine. The binding activity of the antibodies against the analytes were kinetically tested. […] Antibodies were captured by a 2 min injection at 10 μl/min of cell culture HEK supernatant diluted 1:2 in sample buffer. The flow rate was set to 100 μl/min. The analyte was injected at different concentration steps of 0 nM, 1.1 nM, 3.7 nM, 11.1 nM, […], 100 nM and 300 nM for 2 min. The dissociation was monitored for 5 min. Kinetic signatures were monitored and evaluated using the Biaevaluation Software and a binary Langmuir Fitting model with RMAX local. […]

[10] = biological target: T11, phosphorylated TtSlyD-CSF1R; assay: SPR (Biacore), antibody captured on anti-rabbit F(ab)2, analyte in solution, Langmuir fit, 25 C
T11 sequence (chain, tyrosines phosphorylated in vitro with Src (1-530) kinase; positions not stated): T10 chain

[11] = biological target: T12, human CSF-1R (Colony stimulating factor 1 receptor) (human, UniProt P07333 20-972, limits assumed); assay: Western blot of cell lysates: lane 2 NIH3T3 wt, lane 3 NIH 3T3+CSF1 K4, lane 4 NIH 3T3+CSF1 K8 [continued]
T12 construct: also called M-CSF receptor; c-fms
T12 sequence (P07333 other isoform, or with tags, fused parts or gaps limits assumed): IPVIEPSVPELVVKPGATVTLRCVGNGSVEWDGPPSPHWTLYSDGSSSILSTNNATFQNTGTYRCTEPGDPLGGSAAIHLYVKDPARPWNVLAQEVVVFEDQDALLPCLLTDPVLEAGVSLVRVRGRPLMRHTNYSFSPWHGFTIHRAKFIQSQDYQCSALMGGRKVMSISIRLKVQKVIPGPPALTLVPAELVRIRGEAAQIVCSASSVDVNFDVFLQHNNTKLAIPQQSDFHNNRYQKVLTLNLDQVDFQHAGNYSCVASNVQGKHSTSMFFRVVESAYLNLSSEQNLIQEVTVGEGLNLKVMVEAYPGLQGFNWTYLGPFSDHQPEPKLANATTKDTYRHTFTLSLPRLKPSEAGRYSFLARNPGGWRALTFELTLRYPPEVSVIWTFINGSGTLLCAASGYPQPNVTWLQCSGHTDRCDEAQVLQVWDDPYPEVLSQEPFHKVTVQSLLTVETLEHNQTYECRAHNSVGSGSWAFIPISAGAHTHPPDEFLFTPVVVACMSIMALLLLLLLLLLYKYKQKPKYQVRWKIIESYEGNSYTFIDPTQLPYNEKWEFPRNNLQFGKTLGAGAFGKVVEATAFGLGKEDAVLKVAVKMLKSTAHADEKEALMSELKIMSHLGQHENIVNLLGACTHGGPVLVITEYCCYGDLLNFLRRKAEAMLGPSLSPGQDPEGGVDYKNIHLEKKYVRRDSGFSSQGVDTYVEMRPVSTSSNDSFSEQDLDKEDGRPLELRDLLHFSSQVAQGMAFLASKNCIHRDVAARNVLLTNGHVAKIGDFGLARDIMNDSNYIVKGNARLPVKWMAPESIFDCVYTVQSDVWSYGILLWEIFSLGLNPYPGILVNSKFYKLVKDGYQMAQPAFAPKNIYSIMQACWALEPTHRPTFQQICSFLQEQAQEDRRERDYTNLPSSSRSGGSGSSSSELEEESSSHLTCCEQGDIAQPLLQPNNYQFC

B1: antibody 1H11 (antibody, V domains shown)
VH: QSVEESGGRLVTPGTPLTLTCTASGFSLSRYWMTWVRQAPGKGLEYIGWIDRSGNTYFADWAKGRFTGSKTSTTRDLKITSPTTEDTATYFCGRGGQNNGYDLWGPGTLVTVSS
VL: AAVLTQTPSPVSAAVGGTVTISCQSSESVYSNNFLSWYQLKPGQRPRLLIYEASKVASGVPSRFSGSGSGTQFTLTISGVQCDDAATYYCAGGYDVSDDAFGGGTEVLVK
notes: Rabbit full length IgG made recombinantly in FreeStyle 293-F cells; For SPR it was captured from HEK culture supernatant on goat anti-rabbit F(ab)2; no sentence ties 1H11 to them directly; also called rabbit monoclonal anti-CSF-1R antibody
% Signal [1]: 57.1% | % Signal [2]: 73.9% | % Signal [3]: 91.8% | % Signal [4]: 49.8% | % Signal [5]: 62.6% | % Signal [6]: 48.9% | % Signal [7]: 45.7% | % Signal [8]: 100% | % Signal [9]: 55.3% | binding result (TtSlyD-CSF1R): binds | Kd [10]: 0.2 nM | koff [10]: 0.000122 s⁻¹ | kon [10]: 578000 M⁻¹ s⁻¹ | binding result [11]: binds
